According to patent publication US20110269161:

Tests used:
[1] = system: T1, peptide C6 (TKRSGSVYEPPFR), derived from phosphorylase b kinase regulatory subunit beta (Ser26)
T1 sequence: TKRSGSVYEPPFR

[2] = system: T2, peptide F6 (RIRTQSFSLQPFR), derived from nitric-oxide synthase, endothelial (Ser1176)
T2 sequence: RIRTQSFSLQPFR

[3] = system: T3, peptide A6 (RPGPQSPGSPPFR), derived from neutrophil cytosol factor 1
T3 sequence: RPGPQSPGSPPFR

[4] = system: seven peptides sharing a common motif of [S/T]-Pro and clear upregulation by G2/M arrest
[5] = system: T4, peptide C2 (IPTGTTPQRKPFR), derived from kinesin-like protein kif11 (Thr927)
T4 sequence: IPTGTTPQRKPFR

[6] = system: T5, peptide B11 (LKLSPSPSSRPFR), derived from lamin-b1 (Ser392)
T5 sequence: LKLSPSPSSRPFR

[7] = system: peptide H5 (EYDRLYEEYTPFR), derived from Phosphatidylinositol 3-kinase regulatory subunit p85α(Tyr-467)/p55γ(Tyr-199)

Akt1 (full length), purified human active kinase
in vitro peptide phosphorylation by purified kinase (KAYAK, LC-MS) [1]: this peptide was not significantly phosphorylated by Akt
peptide phosphorylation, 100 µM peptide reacted individually [2]: both RSK and Akt demonstrated strong phosphorylation

Cdc2/cyclin B1 (full length), purified complex
phosphorylation by purified kinase complex (KAYAK profiling of 90 peptides) [3]: purified Cdc2/Cyclin B1 complex phosphorylated all 7 peptides along with 4 other up-regulated peptides
phosphorylation by purified kinase complex (KAYAK profiling of 90 peptides) [4]: purified Cdc2/Cyclin B1 complex phosphorylated all 7 peptides along with 4 other up-regulated peptides
phosphorylation by purified kinase complex (KAYAK profiling of 90 peptides) [5]: purified Cdc2/Cyclin B1 complex phosphorylated all 7 peptides along with 4 other up-regulated peptides
phosphorylation by purified kinase complex (KAYAK profiling of 90 peptides) [6]: purified Cdc2/Cyclin B1 complex phosphorylated all 7 peptides along with 4 other up-regulated peptides

Src (full length), purified human active kinase
in vitro kinase reaction with purified kinase [7]: robust phosphorylation by Src but not EGFR
